Results as given in PMC5562730, “Three recombinantly expressed apple tyrosinases suggest the amino acids responsible for mono- versus diphenolase activity in plant polyphenol oxidases” (Scientific Reports, 2017).

Key:
purified protein [1] = substrate: NCCc1ccc(O)c(O)c1; assay: purified protein; format: biochemical, Malus domestica; conditions: 50 mM Tris-HCl pH 7.0, 25 °C, 3 mM SDS as activator
purified protein [2] = substrate: NCCc1ccc(O)cc1; assay: purified protein; format: biochemical, Malus domestica; conditions: 50 mM Tris-HCl pH 7.0, 25 °C, 3 mM SDS as activator

B1: MdPPO1 (Malus domestica) (protein)
chain: KPIAPPDVSKCGPADLPQGAVPTNCCPPPSTKIIDFKLPAPAKLRIRPPAHAVDQAYRDKYYKAMELMKALPDDDPRSFKQQAAVHCAYCDGAYDQVGFPELELQIHNSWLFFPFHRYYLYFFEKILGKLINDPTFALPFWNWDSPAGMPLPAIYADPKSPLYDKLRSANHQPPTLVDLDYNGTEDNVSKETTINANLKIMYRQMVSNSKNAKLFFGNPYRAGDEPDPGGGSIEGTPHAPVHLWTGDNTQPNFEDMGNFYSAGRDPIFFAHHSNVDRMWSIWKTLGGKRTDLTDSDWLDSGFLFYNENAELVRVKVRDCLETKNLGYVYQDVDIPWLSSKPTPRRAKVALSKVAKKLGVAHAAVASSSKVVAGTEFPISLGSKISTVVKRPKQKKRSKKAKEDEEEILVIEGIEFDRDVAVKFDVYVNDVDDLPSGPDKTEFAGSFVSVPHSHKHKKKMNTILRLGLTDLLEEIEAEDDDSVVVTLVPKFGAVKIGGIKIEFAS
notes: latent pro-enzyme without transit peptide, C-terminal domain kept; GST tag cut (HRV3C, pGEX-6P-1 SmaI); E. coli BL21
Km (purified protein [1]): 480 ± 38 µM | kcat (purified protein [1]): 100 ± 4.54 s⁻¹ | Km (purified protein [2]): 710 ± 36 µM | kcat (purified protein [2]): 9.5 ± 0.43 s⁻¹
